Experimental data as given in the supplement of paper PMC10567573.
± gives the standard deviation.

Assay: protein stability index of a GFP-peptide fusion (GPS, HEK-293T) (PSI 1-6); higher = more stable
[1] = treatment: DMSO, c terminus: a fixed tail appended
[2] = treatment: MLN4924 1 uM, 8 h, c terminus: a fixed tail appended
[3] = treatment: DMSO, c terminus: native
[4] = treatment: MLN4924 1 uM, 8 h, c terminus: native
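Note: 24-mer peptide tiles fused after GFP, lentivirally expressed, FACS-sorted into six equal bins by GFP/DsRed ratio, decoded by Illumina sequencing, PSI is the read-weighted mean bin number.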

Sequence	protein stability index [1]	protein stability index [2]	protein stability index [3]	protein stability index [4]
DSLHPRPPYLPLAVPEDLADRLVR [FUT8]	4.14 ± 0.13	4.06 ± 0.14	–	–
MHGNEALGRELMLQLSEFLCEEFR [CPN1]	2.24 ± 0.49	2.67 ± 0.22	–	–
PPAALESSDSANTTIEDEDAKARK [CAMK2B]	5.65 ± 0.15	5.7 ± 0.13	–	–
EDEGFLREEERPLPRRDFQRQVWL [KCNA3]	3.97 ± 0.1	4 ± 0.4	–	–
QNPEAIAAAAMYTFLPDNFSPAKP [MYORG]	3.79 ± 0.15	3.86 ± 0.2	–	–
QVYYFGPCGKYNAMVLELLGPSLE [CSNK1G1]	3.52 ± 1.8	1.92 ± 0.25	–	–
PGAGVPSGSGGTVAPATMGSARSH [ZBTB22]	4.75 ± 0.16	4.8 ± 0.15	–	–
HTSTARLLLHRGAGKEAMTSDGYT [RIPK4]	3.61 ± 0.22	3.75 ± 0.29	–	–
DAKDAARDMNGKSLDGKAIKVEQA [RBMX]	5.36 ± 0.41	5.37 ± 0.39	–	–
VAQLEDRRSTTDLRGTQFDYERGK [ZSWIM9]	5.03 ± 0.18	5.07 ± 0.24	–	–
AKKEDKVPVKKQKTRTVFSSTQLC [NANOGP8]	4.2 ± 0.1	4.19 ± 0.12	–	–
MTVKQYEAARLEYDAYRTDLEELS [ARFIP2]	3.84 ± 0.19	3.97 ± 0.21	–	–
HCPDCGQQWFPSLELGHWLYQTEL [TOR1AIP2]	2.31 ± 0.57	2.52 ± 0.41	–	–
GPHEAFNKLWELCCQWLKPKMRSK [ZNF449]	2.67 ± 0.88	2.99 ± 0.71	–	–
QEHKTDEMHTALMEACMDGHVEVA [ANKRD17]	5.19 ± 0.4	5.31 ± 0.21	–	–
DKVRALEEANADLEVKIHDWYQKQ [KRT15]	4.4 ± 0.24	4.3 ± 0.36	–	–
GDVAIKLKFLEENKIKVMHKQLLL [ARFIP2]	2.25 ± 0.31	2.12 ± 0.26	–	–
TKCRKRKLERIARLEDKVKTLKAE [JUNB]	4.28 ± 0.23	4.42 ± 0.29	–	–
HQRKYTQSFCGENIMMPMGGMMPP [ZNF207]	2.34 ± 0.15	2.49 ± 0.16	–	–
MSPSMLTRNSPRGCRLPSISSTTC [SPATS1]	2.97 ± 0.18	3.03 ± 0.2	–	–
GIVESIQIMKEGKATASEAVDCKW [NETO1]	3.71 ± 1.3	3.99 ± 0.2	–	–
VQKDHENYMKILLKVGGILVMPIE [PCMTD1]	2.88 ± 0.67	2.16 ± 0.48	–	–

Sequence	protein stability index [1]	protein stability index [2]	protein stability index [3]	protein stability index [4]
IYGRSQNPVQPIGPQTPKACDSKL [MMP1]	4.15 ± 0.17	4.08 ± 0.12	–	–
IMNIIDIVSILPYFITLGTDLAQQ [KCNA4]	3.37 ± 0.44	2.95 ± 0.49	–	–
ALEGSALANGRALSAGSPPVPPGW [DLX1]	3.59 ± 0.15	3.86 ± 0.17	–	–
GEVIHCKLRAMKELSEAAEAQHGP [STX11]	4.03 ± 0.38	4.22 ± 0.11	–	–
ILVMKHNYSQDAADACDIDEIEEV [NETO1]	4.11 ± 0.16	4.18 ± 0.28	–	–
KIIICSQNEEYLLTYINEDRISTT [PLK2]	2.02 ± 0.35	2.06 ± 0.36	–	–
WGPSGQLMGEIAKATFMYEQFPEL [CLINT1]	1.97 ± 0.38	2.06 ± 0.23	–	–
PCSGSVSLQPRRSIAFRLRLASFD [GMCL1]	2.58 ± 0.39	2.24 ± 0.27	–	–
TKSHSFRAMCQNGKLVYPSCEEK [CFHR2]	–	–	3.813 ± 0.01	4.09 ± 0.12
NSNGGNLNSPPGPHSAKTEEHTTI [CDC14A]	5.28 ± 0.17	5.49 ± 0.2	–	–
KRKSEVERAVKRMRHLSTGTMTGL [MATN2]	3.31 ± 0.088	3.12 ± 0.65	–	–
LVQTTDFFYPLVEDPYMMGRIACA [SEPHS2]	2.34 ± 0.47	2.23 ± 0.29	–	–
VAAVLEAVAQTAHLPADSEVTLEA [RSAD1]	3.8 ± 0.17	3.94 ± 0.37	–	–
ALALQARGCSVKIWTAHYDPGHCF [ALG2]	2.25 ± 0.41	2.23 ± 0.26	–	–
GKKQEYLENRIQREIALAKKHGTQ [CHMP4C]	3.92 ± 0.35	4.13 ± 0.14	–	–
SILTDNPTWIIDPIDGTTNFVHRF [IMPA1]	2.19 ± 0.26	2.12 ± 0.27	–	–
DLNKDKPVIPAAALAGYTGSGPIQ [ETS1]	4.2 ± 0.13	4.14 ± 0.25	–	–
LVCTFSSQVCRVAYEIMQTLHPDA [FUT8]	2.95 ± 0.12	3.22 ± 0.55	–	–
DHKEPKEEINKNISDFGRQQLLPP [EHMT1]	5.1 ± 0.2	5.16 ± 0.21	–	–
IVNQWSEKFSDEGDSDSALDSVSP [DLC1]	5.32 ± 0.18	5.24 ± 0.23	–	–
YEFQIPYICPDYQSYFKTIEDFQQ [KRT36]	2.28 ± 0.3	2.07 ± 0.3	–	–
MQEKNPVHVIGVEEPSVGASMLFD [ZNF8]	4.41 ± 0.094	4.34 ± 0.2	–	–

Sequence	protein stability index [1]	protein stability index [2]	protein stability index [3]	protein stability index [4]
DLLHGPECRSSVTSDSEGAHVNTL [PHTF1]	4.33 ± 0.14	4.61 ± 0.35	–	–
PSRAKPPTEGAGSPAKASQASKLR [FBF1]	5.16 ± 0.28	5.2 ± 0.2	–	–
EDQKLQVLLTQIESKKHQVETAFE [TRIM15]	4.29 ± 0.22	4.51 ± 0.29	–	–
QSGRDLQQYQSQAKQLFRKLNEQS [SEC22B]	3.72 ± 0.29	3.83 ± 0.27	–	–
KFSHSGRYMLTRDYLTVKVWDLNM [PPP2R2C]	2.35 ± 0.23	2.33 ± 0.31	–	–
PPDTVSRTGLEKAAAGAVGLERRD [SPDEF]	5.04 ± 0.15	5.29 ± 0.39	–	–
EFARKGSCFLINTADRIIRVYDGR [RBBP5]	2.23 ± 0.67	2.24 ± 0.26	–	–
KVNLCGHWYYSKACCRSCRPPHS [ADAMTSL2]	–	–	2.86 ± 0.57	3.17 ± 0.54
VVDRIQSSGKNVTLLVCGKKAYDY [PDZK1]	2.42 ± 0.5	2.54 ± 0.31	–	–
GEQDTWAGEGAEALARNLLVDGET [NFE2L1]	5.18 ± 0.57	5.15 ± 0.46	–	–
RIYVLGGGTSWTAYSLNKIHAYNL [KLHDC10]	2.42 ± 0.41	2.61 ± 0.67	–	–
GEATAAPAPLCGGPSAEAYLLHPA [TBX6]	4.17 ± 0.22	4.47 ± 0.13	–	–
VVKEEISDDNAKLPCFNGRVVSWL [DVL3]	2.94 ± 0.29	3.19 ± 0.19	–	–
LKLLDELPIAKVMKDYLKHKFDDI [ASB7]	2.04 ± 0.3	2.14 ± 0.28	–	–
VVEEAKCCCFFKRKRKKTAQRHK [CSNK1G1]	–	–	4.18 ± 0.33	4.69 ± 0.42
PMAADEGSAEKQAGEAHMAADGET [EHMT1]	5.6 ± 0.17	5.66 ± 0.082	–	–
DRTWTLCGTPEYLAPEVIQSKGHG [PRKX]	3.91 ± 0.48	3.97 ± 0.35	–	–
EQQRCLLLARLRELEQQIWKERDE [TRIM15]	3.03 ± 0.28	3.29 ± 0.36	–	–
YKSVLQAVQKTDEGHPFKAYLELE [RTN1]	3.43 ± 0.12	3.54 ± 0.21	–	–
RYRGLGLLASVPSNPNGNGGFMGY [CRY1]	2.53 ± 0.14	2.91 ± 0.19	–	–
DLLKFEKKFQSEKAAGSVSKSTQF [FIS1]	3.82 ± 0.18	3.53 ± 0.18	–	–
